Assay results from US20240252606A1 (CHANGCHUN BCHT BIOTECHNOLOGY, published 2024).

B1: lysine-modified norovirus capsid P protein PP-3K (other)
chain: MGKPFSVPILTVEEMTNSRFPIPLEKLFTGPSSAFVVQPQNGRCTTDGVLLGTTQLSPVNICTFRGDVTHIAGKTQNYTMNLASQNWNNYDPTEEIPAPLGTPDFVGRIQGVLTQTTRRDGSTRGHKATVSTGSVHFTPKLGSVQFSTDTSKNDFETGQNTRFTPVGVVQDGKSTTHQNEPQQWVLPDYSGRDSHNVHLAPAVAPTFPGEQLLFFRSTMPGCSGYPNMNLDCLLPQEWVQHFYQESAPAQSDVALLRFVNPDTGRVLFECKLHKSGYVTVAHTGQHDLVIPPNGYFRFDSWVNQFYTLAPMGNGAGRRRAL
notes: self-assembles into dodecamers and tetracosamers
B2: cysteine-modified norovirus capsid P protein PP-3C (other)
chain: MGKPFSVPILTVEEMTNSRFPIPLEKLFTGPSSAFVVQPQNGRCTTDGVLLGTTQLSPVNICTFRGDVTHIAGCQNYTMNLASQNWNNYDPTEEIPAPLGTPDFVGRIQGVLTQTTRRDGSTRGHKATVSTGSVHFTPKLGSVQFSTDTCNDFETGQNTRFTPVGVVQDCSTTHQNEPQQWVLPDYSGRDSHNVHLAPAVAPTFPGEQLLFFRSTMPGCSGYPNMNLDCLLPQEWVQHFYQESAPAQSDVALLRFVNPDTGRVLFECKLHKSGYVTVAHTGQHDLVIPPNGYFRFDSWVNQFYTLAPMGNGAGRRRAL
notes: as for B1

Biological target: the molecule itself
Assay: native gel electrophoresis, self-assembly

| Protein | binding result |
| --- | --- |
| B1 | binds |
| B2 | binds |
